Experimental data reported in article PMC10786891, “Massively parallel profiling of RNA-targeting CRISPR-Cas13d”.

Each binder was assayed against T1, EsCas13d, nuclease-dead (Eubacterium siraeum, UniProt B0MS50, R295A;H300A;R849A;H854A) (assay: crRNA (strand 1, pre-loaded); Mg2+; 40 mM Tris-HCl pH 7.5, 150 mM NaCl, 6 mM MgCl2, 1 mM DTT, 0.1% Tween-20, 0.2 mg/ml BSA; 25 C; 10 min per concentration, then washed). Conditions: tags: His6-TwinStrep-SUMO cleaved; N-terminal SNAP kept (SNAP-Surface 488); label: 3' end held by stalled T7 RNA polymerase.
T1 sequence: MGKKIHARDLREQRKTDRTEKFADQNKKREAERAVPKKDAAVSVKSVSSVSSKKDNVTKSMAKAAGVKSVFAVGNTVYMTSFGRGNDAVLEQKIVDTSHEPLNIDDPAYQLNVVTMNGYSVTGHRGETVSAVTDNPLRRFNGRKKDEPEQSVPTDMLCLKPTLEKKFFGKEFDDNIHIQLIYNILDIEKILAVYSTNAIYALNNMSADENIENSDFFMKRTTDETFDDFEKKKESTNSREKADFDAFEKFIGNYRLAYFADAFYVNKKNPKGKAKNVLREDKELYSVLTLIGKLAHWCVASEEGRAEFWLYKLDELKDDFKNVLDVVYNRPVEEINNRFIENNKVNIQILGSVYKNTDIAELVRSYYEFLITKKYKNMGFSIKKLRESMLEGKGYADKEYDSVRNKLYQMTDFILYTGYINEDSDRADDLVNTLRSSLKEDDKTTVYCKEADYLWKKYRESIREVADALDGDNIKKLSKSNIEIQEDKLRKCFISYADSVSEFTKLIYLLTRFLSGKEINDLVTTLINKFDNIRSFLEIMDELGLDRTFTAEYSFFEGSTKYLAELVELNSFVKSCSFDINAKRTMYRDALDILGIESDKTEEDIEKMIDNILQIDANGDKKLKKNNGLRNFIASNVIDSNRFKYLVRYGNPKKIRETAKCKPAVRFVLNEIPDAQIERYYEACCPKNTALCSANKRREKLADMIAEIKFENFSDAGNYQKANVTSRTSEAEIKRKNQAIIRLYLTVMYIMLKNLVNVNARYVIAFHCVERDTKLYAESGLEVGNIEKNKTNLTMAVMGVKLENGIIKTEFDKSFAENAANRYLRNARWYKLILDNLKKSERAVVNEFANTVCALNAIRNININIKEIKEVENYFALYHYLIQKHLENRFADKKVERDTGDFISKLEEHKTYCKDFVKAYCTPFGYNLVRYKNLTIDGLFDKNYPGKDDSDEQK

Row | Binder | Kd
1 | target 1 U8A,U11G (mixed) RNA 1: CACCCGUGCAAAAAUGCAGGGGUCUAAAACUGAGCGGAUAACCUCUCUAUGG RNA 2: GGGAAUGGAUCCACAUCUACGAAUUCGUACCAUAGAGAGGGUAACCGCUCACCGAGAUCGGAAGAGCACACGU | 12.7 ± 0.5 nM
2 | target 1 C7U,A20U (mixed) RNA 1: CACCCGUGCAAAAAUGCAGGGGUCUAAAACUGAGCGGAUAACCUCUCUAUGG RNA 2: GGGAAUGGAUCCACAUCUACGAAUUCGUACCUUAGAGAGGUUAUUCGCUCACCGAGAUCGGAAGAGCACACGU | 41.2 ± 3.4 nM
3 | target 1 C2A,G5A (mixed) RNA 1: CACCCGUGCAAAAAUGCAGGGGUCUAAAACUGAGCGGAUAACCUCUCUAUGG RNA 2: GGGAAUGGAUCCACAUCUACGAAUUCGUACCAUAGAGAGGUUAUCCACUAACCGAGAUCGGAAGAGCACACGU | 31.6 ± 3.2 nM
4 | target 1 U3C,U8C (mixed) RNA 1: CACCCGUGCAAAAAUGCAGGGGUCUAAAACUGAGCGGAUAACCUCUCUAUGG RNA 2: GGGAAUGGAUCCACAUCUACGAAUUCGUACCAUAGAGAGGUUACCCGCCCACCGAGAUCGGAAGAGCACACGU | 13.4 ± 0.6 nM
5 | target 1 C6U,A14C (mixed) RNA 1: CACCCGUGCAAAAAUGCAGGGGUCUAAAACUGAGCGGAUAACCUCUCUAUGG RNA 2: GGGAAUGGAUCCACAUCUACGAAUUCGUACCAUAGAGCGGUUAUCUGCUCACCGAGAUCGGAAGAGCACACGU | 20 ± 1 nM
6 | target 1 insA 3' of 10,insC 3' of 9 (mixed) RNA 1: CACCCGUGCAAAAAUGCAGGGGUCUAAAACUGAGCGGAUAACCUCUCUAUGG RNA 2: GGGAAUGGAUCCACAUCUACGAAUUCGUACCAUAGAGAGGUUAACUCCGCUCACCGAGAUCGGAAGAGCACACGU | 14.4 ± 0.5 nM
7 | target 1 insC 3' of 12,insC 3' of 3 (mixed) RNA 1: CACCCGUGCAAAAAUGCAGGGGUCUAAAACUGAGCGGAUAACCUCUCUAUGG RNA 2: GGGAAUGGAUCCACAUCUACGAAUUCGUACCAUAGAGAGGCUUAUCCGCUCCACCGAGAUCGGAAGAGCACACGU | 12.3 ± 2.6 nM
8 | target 1 insU 3' of 17,insA 3' of 8 (mixed) RNA 1: CACCCGUGCAAAAAUGCAGGGGUCUAAAACUGAGCGGAUAACCUCUCUAUGG RNA 2: GGGAAUGGAUCCACAUCUACGAAUUCGUACCAUAGUAGAGGUUAUACCGCUCACCGAGAUCGGAAGAGCACACGU | 24.6 ± 1.5 nM
9 | target 1 insG 3' of 22,insG 3' of 3 (mixed) RNA 1: CACCCGUGCAAAAAUGCAGGGGUCUAAAACUGAGCGGAUAACCUCUCUAUGG RNA 2: GGGAAUGGAUCCACAUCUACGAAUUCGUACGCAUAGAGAGGUUAUCCGCUGCACCGAGAUCGGAAGAGCACACGU | 21.5 ± 2.1 nM
10 | target 1 insG 3' of 18,insA 3' of 3 (mixed) RNA 1: CACCCGUGCAAAAAUGCAGGGGUCUAAAACUGAGCGGAUAACCUCUCUAUGG RNA 2: GGGAAUGGAUCCACAUCUACGAAUUCGUACCAUAGGAGAGGUUAUCCGCUACACCGAGAUCGGAAGAGCACACGU | 49.3 ± 3.1 nM
11 | target 1 insA 3' of 13,insA 3' of 10 (mixed) RNA 1: CACCCGUGCAAAAAUGCAGGGGUCUAAAACUGAGCGGAUAACCUCUCUAUGG RNA 2: GGGAAUGGAUCCACAUCUACGAAUUCGUACCAUAGAGAGAGUUAAUCCGCUCACCGAGAUCGGAAGAGCACACGU | 4.3 ± 0.5 nM
12 | target 1 C2U,U8A (mixed) RNA 1: CACCCGUGCAAAAAUGCAGGGGUCUAAAACUGAGCGGAUAACCUCUCUAUGG RNA 2: GGGAAUGGAUCCACAUCUACGAAUUCGUACCAUAGAGAGGUUAACCGCUUACCGAGAUCGGAAGAGCACACGU | 21.2 ± 1 nM
13 | target 1 insG 3' of 14,insA 3' of 5 (mixed) RNA 1: CACCCGUGCAAAAAUGCAGGGGUCUAAAACUGAGCGGAUAACCUCUCUAUGG RNA 2: GGGAAUGGAUCCACAUCUACGAAUUCGUACCAUAGAGAGGGUUAUCCGACUCACCGAGAUCGGAAGAGCACACGU | 8.1 ± 0.4 nM
14 | target 1 del7,del11 (mixed) RNA 1: CACCCGUGCAAAAAUGCAGGGGUCUAAAACUGAGCGGAUAACCUCUCUAUGG RNA 2: GGGAAUGGAUCCACAUCUACGAAUUCGUACCAUAGAGAGGUAUCGCUCACCGAGAUCGGAAGAGCACACGU | 15.4 ± 0.5 nM
15 | target 1 insC 3' of 22,insU 3' of 14 (mixed) RNA 1: CACCCGUGCAAAAAUGCAGGGGUCUAAAACUGAGCGGAUAACCUCUCUAUGG RNA 2: GGGAAUGGAUCCACAUCUACGAAUUCGUACCCAUAGAGAUGGUUAUCCGCUCACCGAGAUCGGAAGAGCACACGU | 40 ± 10 nM
16 | target 1 G15U,C21U (mixed) RNA 1: CACCCGUGCAAAAAUGCAGGGGUCUAAAACUGAGCGGAUAACCUCUCUAUGG RNA 2: GGGAAUGGAUCCACAUCUACGAAUUCGUACUAUAGAUAGGUUAUCCGCUCACCGAGAUCGGAAGAGCACACGU | 6.4 ± 0.5 nM
17 | target 1 C4A,G5C (mixed) RNA 1: CACCCGUGCAAAAAUGCAGGGGUCUAAAACUGAGCGGAUAACCUCUCUAUGG RNA 2: GGGAAUGGAUCCACAUCUACGAAUUCGUACCAUAGAGAGGUUAUCCCAUCACCGAGAUCGGAAGAGCACACGU | 20.9 ± 1.7 nM
18 | target 1 insU 3' of 20 (mixed) RNA 1: CACCCGUGCAAAAAUGCAGGGGUCUAAAACUGAGCGGAUAACCUCUCUAUGG RNA 2: GGGAAUGGAUCCACAUCUACGAAUUCGUACCAUUAGAGAGGUUAUCCGCUCACCGAGAUCGGAAGAGCACACGU | 10.6 ± 0.6 nM
19 | target 1 insU 3' of 21,insU 3' of 2 (mixed) RNA 1: CACCCGUGCAAAAAUGCAGGGGUCUAAAACUGAGCGGAUAACCUCUCUAUGG RNA 2: GGGAAUGGAUCCACAUCUACGAAUUCGUACCUAUAGAGAGGUUAUCCGCUCUACCGAGAUCGGAAGAGCACACGU | 38 ± 4 nM
20 | target 1 G13U,A14C (mixed) RNA 1: CACCCGUGCAAAAAUGCAGGGGUCUAAAACUGAGCGGAUAACCUCUCUAUGG RNA 2: GGGAAUGGAUCCACAUCUACGAAUUCGUACCAUAGAGCUGUUAUCCGCUCACCGAGAUCGGAAGAGCACACGU | 10.8 ± 0.7 nM
21 | target 1 complement block 3-13 (mixed) RNA 1: CACCCGUGCAAAAAUGCAGGGGUCUAAAACUGAGCGGAUAACCUCUCUAUGG RNA 2: GGGAAUGGAUCCACAUCUACGAAUUCGUACCAUAGAGACCAAUAGGCGACACCGAGAUCGGAAGAGCACACGU | 62 ± 7 nM
22 | target 1 del3,del5 (mixed) RNA 1: CACCCGUGCAAAAAUGCAGGGGUCUAAAACUGAGCGGAUAACCUCUCUAUGG RNA 2: GGGAAUGGAUCCACAUCUACGAAUUCGUACCAUAGAGAGGUUAUCCCCACCGAGAUCGGAAGAGCACACGU | 15.8 ± 0.9 nM
23 | target 1 insU 3' of 14,insA 3' of 5 (mixed) RNA 1: CACCCGUGCAAAAAUGCAGGGGUCUAAAACUGAGCGGAUAACCUCUCUAUGG RNA 2: GGGAAUGGAUCCACAUCUACGAAUUCGUACCAUAGAGAUGGUUAUCCGACUCACCGAGAUCGGAAGAGCACACGU | 28.7 ± 3 nM
24 | target 1 A9G,U11C (mixed) RNA 1: CACCCGUGCAAAAAUGCAGGGGUCUAAAACUGAGCGGAUAACCUCUCUAUGG RNA 2: GGGAAUGGAUCCACAUCUACGAAUUCGUACCAUAGAGAGGCUGUCCGCUCACCGAGAUCGGAAGAGCACACGU | 12.1 ± 0.5 nM
